Experimental data from publication PMC5100602, “RNA regulators responding to ribosomal protein S15 are frequent in sequence space”.

What was measured:
[1] = target: T1, Tt-S15 (ribosomal protein S15) (Thermus thermophilus, UniProt Q5SJ76 1-89); experiment: filter binding; Fmax 25%; SELEX Binding Buffer A: 50 mM Tris/acetate pH 7.5, 20 mM Mg-acetate, 270 mM KCl, 5 mM DTT, 0.02% BSA, 25 C, 30 min; filter binding (nitrocellulose/nylon) as previously described; conditions: protein: recombinant; tags: expressed from pET-HT; label: 5'-32P
[2] = target: T2, Gk-S15 (ribosomal protein S15) (Geobacillus kaustophilus, UniProt Q5L0I3 1-89); experiment: filter binding; Fmax 79%; SELEX Binding Buffer A: 50 mM Tris/acetate pH 7.5, 20 mM Mg-acetate, 270 mM KCl, 5 mM DTT, 0.02% BSA, 25 C, 30 min; filter binding (nitrocellulose/nylon) as previously described; conditions: protein: recombinant; tags: expressed from pET-HT; label: 5'-32P
[3] = target: T2, Gk-S15 (ribosomal protein S15); experiment: filter binding; Fmax 55%; SELEX Binding Buffer A: 50 mM Tris/acetate pH 7.5, 20 mM Mg-acetate, 270 mM KCl, 5 mM DTT, 0.02% BSA, 25 C, 30 min; filter binding (nitrocellulose/nylon) as previously described; conditions: protein: recombinant; tags: expressed from pET-HT; label: 5'-32P
[4] = target: T2, Gk-S15 (ribosomal protein S15); experiment: filter binding; Fmax 40%; SELEX Binding Buffer A: 50 mM Tris/acetate pH 7.5, 20 mM Mg-acetate, 270 mM KCl, 5 mM DTT, 0.02% BSA, 25 C, 30 min; filter binding (nitrocellulose/nylon) as previously described; conditions: protein: recombinant; tags: expressed from pET-HT; label: 5'-32P
[5] = target: T2, Gk-S15 (ribosomal protein S15); experiment: filter binding; Fmax 44%; poor 1:1 fit; SELEX Binding Buffer A: 50 mM Tris/acetate pH 7.5, 20 mM Mg-acetate, 270 mM KCl, 5 mM DTT, 0.02% BSA, 25 C, 30 min; filter binding (nitrocellulose/nylon) as previously described; conditions: protein: recombinant; tags: expressed from pET-HT; label: 5'-32P
[6] = target: T2, Gk-S15 (ribosomal protein S15); experiment: filter binding; Fmax 0.36; SELEX Binding Buffer A: 50 mM Tris/acetate pH 7.5, 20 mM Mg-acetate, 270 mM KCl, 5 mM DTT, 0.02% BSA, 25 C, 30 min; filter binding (nitrocellulose/nylon) as previously described; conditions: protein: recombinant; tags: expressed from pET-HT; label: 5'-32P
[7] = target: T2, Gk-S15 (ribosomal protein S15); experiment: filter binding; Fmax 0.56; text says abolished; SELEX Binding Buffer A: 50 mM Tris/acetate pH 7.5, 20 mM Mg-acetate, 270 mM KCl, 5 mM DTT, 0.02% BSA, 25 C, 30 min; filter binding (nitrocellulose/nylon) as previously described; conditions: protein: recombinant; tags: expressed from pET-HT; label: 5'-32P; H1 disrupted
[8] = target: T2, Gk-S15 (ribosomal protein S15); experiment: filter binding; Fmax 70%; SELEX Binding Buffer A: 50 mM Tris/acetate pH 7.5, 20 mM Mg-acetate, 270 mM KCl, 5 mM DTT, 0.02% BSA, 25 C, 30 min; filter binding (nitrocellulose/nylon) as previously described; conditions: protein: recombinant; tags: expressed from pET-HT; label: 5'-32P; helices H1-H3
[9] = target: T1, Tt-S15 (ribosomal protein S15); experiment: filter binding; Fmax 78%; SELEX Binding Buffer A: 50 mM Tris/acetate pH 7.5, 20 mM Mg-acetate, 270 mM KCl, 5 mM DTT, 0.02% BSA, 25 C, 30 min; filter binding (nitrocellulose/nylon) as previously described; conditions: protein: recombinant; tags: expressed from pET-HT; label: 5'-32P; helices H1-H3
[10] = target: T2, Gk-S15 (ribosomal protein S15); experiment: filter binding; Fmax 0.71; SELEX Binding Buffer A: 50 mM Tris/acetate pH 7.5, 20 mM Mg-acetate, 270 mM KCl, 5 mM DTT, 0.02% BSA, 25 C, 30 min; filter binding (nitrocellulose/nylon) as previously described; conditions: protein: recombinant; tags: expressed from pET-HT; label: 5'-32P; H2 disrupted
[11] = target: T2, Gk-S15 (ribosomal protein S15); experiment: filter binding; Fmax 0.85; SELEX Binding Buffer A: 50 mM Tris/acetate pH 7.5, 20 mM Mg-acetate, 270 mM KCl, 5 mM DTT, 0.02% BSA, 25 C, 30 min; filter binding (nitrocellulose/nylon) as previously described; conditions: protein: recombinant; tags: expressed from pET-HT; label: 5'-32P; H1 restored
[12] = target: T2, Gk-S15 (ribosomal protein S15); experiment: filter binding; Fmax 21%; SELEX Binding Buffer A: 50 mM Tris/acetate pH 7.5, 20 mM Mg-acetate, 270 mM KCl, 5 mM DTT, 0.02% BSA, 25 C, 30 min; filter binding (nitrocellulose/nylon) as previously described; conditions: protein: recombinant; tags: expressed from pET-HT; label: 5'-32P

T1 sequence (Q5SJ76 whole entry): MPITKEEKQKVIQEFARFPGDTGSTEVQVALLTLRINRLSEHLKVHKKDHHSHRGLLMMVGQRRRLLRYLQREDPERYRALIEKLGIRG

B1: 11-2 (structured_RNA)
RNA: UGCGUAACGUACACUCCCUACUCGUGGAUUGGACUCUAUAAUAGAUCAUUCUAUAUACUGUGGAGCUUAAAAUGUCUCUAAGUACUGAAGCAACAGCU
Kd [1]: 39 ± 6.27 nM | Kd [2]: 9.7 ± 1.6 nM

B2: 11-6 (structured_RNA)
RNA: UGCGUAACGUACACUGAAGACCGCGAACUACAAACGUAACUCGGUUCAUUCUAUAUACUUUAGAGUUUUAAAAUGUCUCUAAGUACUGAAGCAACAGCU
Kd [3]: 289 ± 121 nM

B3: 11-3 (structured_RNA)
RNA: UGCGUAACGUACACUCCGAUGUUACCCGCGCGAGGUCAUUGGUACUCAAUCUAUAUACUUUGGAGUUUUAAAUGUCUCUAAGUACUGAAGCAACAGCU
Kd [4]: 20.7 ± 15.2 nM

B4: 11-5 (structured_RNA)
RNA: UGCGUAACGUACACUAAAGACGGAAGGCCAAAACCUAUGCUUACCCUUUACUUUGGAGUUUUAAAAUGUCUCUAAGUACUGAAGCAACAGCU
Kd [5]: 10 ± 1.4 nM

B5: 11-1-M4 (structured_RNA)
RNA: UGCGUAACGUACACUUCCUUCGCUUAUUCGGAGUAGAUCACGUGAUCAUUCUGUAUGCUUUGGAG
Kd [6]: 7.7 ± 5.89 nM

B6: 11-1-M2 (structured_RNA)
RNA: UUGGUAACGUACACUUCCUUCGCUUAUUCGGAGUAGAUCACGUGAUCAUUCUGUAUGCUUUGGAGUUUUAAAAUGUCUCUAAGUACUGAAGCAACAGCU
Kd [7]: 56.5 ± 5.74 nM

B7: 11-1 (structured_RNA)
RNA: UGCGUAACGUACACUUCCUUCGCUUAUUCGGAGUAGAUCACGUGAUCAUUCUGUAUGCUUUGGAGUUUUAAAAUGUCUCUAAGUACUGAAGCAACAGCU
Kd [8]: 0.9 ± 0.02 nM | Kd [9]: 94.9 ± 22.5 nM

B8: 11-1-M8 (structured_RNA)
RNA: UGCGUAACGUACACUUCCUUCGCUUAUUCGGAGUAGAUCACGUGAUCAUUCUGUAUGCUUUGGUCUUUUAAAAUGUCUCUAAGUACUGAAGCAACAGCU
Kd [10]: 84.5 ± 14.5 nM

B9: 11-1-M3 (structured_RNA)
RNA: UUGGUAACCGACACUUCCUUCGCUUAUUCGGAGUAGAUCACGUGAUCAUUCUGUAUGCUUUGGAGUUUUAAAAUGUCUCUAAGUACUGAAGCAACAGCU
Kd [11]: 20.9 ± 6.3 nM

B10: 11-4 (structured_RNA)
RNA: UGCGUAACGUACACUGAACAAUCCCAGCGCUCUAUGGAAUCUGCAUCAUCUAUUCUUUGGAGUUUAAAUGUCUCUAAGUACUGAAGCAACAGCU
Kd [12]: 8.5 ± 2 nM
